Reference: article PMC11630628 (Molecular Plant, 2024)

How the values were obtained:
[1] = system: 6× His-tagged ectodomains of MIK2; assay: Competitive pull-down assay; type: binding, Arabidopsis thaliana; details: 50 nM MIK2 ectodomain, 250 nM biotinylated SCOOP10 or SCOOP12, 1 h, then increasing concentrations of the other peptide; anti-His Western blot, densitometry; three replicates
Experimental: Subsequently, 30 μL streptavidin magnetic beads (New England Biolabs) were added to each sample and incubated for 1 h at 4°C, followed by washing 5–6 times with 1.0 mL of interactive buffer. The proteins bound to the beads were then eluted using interactive buffer containing 5× SDS loading buffer, and western blot analysis was conducted as previously described ([Lan et al., 2023]). In the competitive binding assay, 50 nM purified MIK2 protein featuring a His-tag at its C-terminal was initially mixed with 250 nM of biotinylated SCOOP10. […] After thorough mixing, the beads underwent 5–6 washes to meticulously remove any residual proteins, and then the preparations were subjected to detailed analysis via western blotting to probe the interactions.

[2] = system: Arabidopsis WT (Col-0) detached rosette leaves; assay: Detached leaf senescence assay, WT; type: in vivo, Arabidopsis thaliana
Experimental: A. thaliana ecotype Columbia-0 and mutants used in this study include mik2-1 (SALK_06269), mik2-2 (CS419958), proscoop10-1 (SALK_080439), and proscoop10-2 (SALK_027949), which were obtained from ABRC. The proscoop12 CRISPR-Cas9-generated mutants were kindly provided by Dr. Elia Stahi at the University of Lausanne, Switzerland ([Stahl et al., 2022]). Imbibed seeds were incubated at 4°C in a refrigerator for 2 days before sowing on the soil mix (3 parts commercial soil: 1 parts vermiculite) and grown under the long-day condition (16 h light/8 h dark) in a growth chamber with 150 μmol m^−2 s^−1 light intensity. For the senescence phenotyping of detached leaves, the fifth and sixth rosette leaves of 25-day-old plants were removed and placed in Petri dishes with the adaxial side facing up. The Petri dishes were sealed with parafilm to prevent water loss, and the leaves were incubated with deionized water. The application of exogenous peptides followed the previously established method ([Zhang et al., 2022a], [2022b]). […] All data including plant phenotypes and gene expression presented in this study were analyzed with GraphPad Prism 9, and at least three biological replicates were included in each experiment. Chl content, photochemical efficiency of PSII (Fv/Fm ratio), and ion leakage were determined as previously described ([Zhang et al., 2020], [2022b]; [Guo et al., 2022]).

[3] = system: Arabidopsis WT intact rosette leaves; assay: Exogenous peptide application on intact rosette leaves; type: in vivo, Arabidopsis thaliana; details: SCOOP10 1 μM sprayed, vs mock
Experimental: A. thaliana ecotype Columbia-0 and mutants used in this study include mik2-1 (SALK_06269), mik2-2 (CS419958), proscoop10-1 (SALK_080439), and proscoop10-2 (SALK_027949), which were obtained from ABRC. The proscoop12 CRISPR-Cas9-generated mutants were kindly provided by Dr. Elia Stahi at the University of Lausanne, Switzerland ([Stahl et al., 2022]). Imbibed seeds were incubated at 4°C in a refrigerator for 2 days before sowing on the soil mix (3 parts commercial soil: 1 parts vermiculite) and grown under the long-day condition (16 h light/8 h dark) in a growth chamber with 150 μmol m^−2 s^−1 light intensity. For the senescence phenotyping of detached leaves, the fifth and sixth rosette leaves of 25-day-old plants were removed and placed in Petri dishes with the adaxial side facing up. The Petri dishes were sealed with parafilm to prevent water loss, and the leaves were incubated with deionized water. The application of exogenous peptides followed the previously established method ([Zhang et al., 2022a], [2022b]). For dark-induced leaf senescence assays, detached rosette leaves were incubated in deionized water placed in the dark condition for 6 days. At least three biological replicates were included for each assay. For senescence phenotype analysis under normal growth conditions, homozygous plants were grown alongside Col-0. All data including plant phenotypes and gene expression presented in this study were analyzed with GraphPad Prism 9, and at least three biological replicates were included in each experiment. Chl content, photochemical efficiency of PSII (Fv/Fm ratio), and ion leakage were determined as previously described ([Zhang et al., 2020], [2022b]; [Guo et al., 2022]).
Figure S4. […]
after 1 to 10 days of treatments. Three independent experiments were performed with 8 leaves measured for each […]
determined by one-way ANOVA (α = 0.05) followed by Bonferroni post-hoc test for multiple comparisons (*P ≤ 0.05, ***P […]
indicate statistically significant differences compared to WT, as determined by one-way ANOVA analysis (α = 0.05) […]

[4] = system: PROSCOOP12 transcript; assay: qPCR expression of PROSCOOP12 in detached leaves; type: cell-based, Arabidopsis thaliana
Source text: Total RNA was isolated from Arabidopsis leaves with the RNAiso Plus (TAKARA) and reverse transcribed using the PrimeScript RT reagent Kit (TAKARA). qPCR reactions were implemented in an Applied Biosystems 7500 Real-Time PCR system with the SYBR Premix Ex Taq II (TAKARA). ACTIN was used as the reference gene for qPCR analyses. The primers used for qPCR are listed in Supplemental Table 2.

[5] = system: MIK2-dependent plant immune response; details: ref Hou et al., 2021b, Rhodes et al.; cited from earlier work
Source text: Senescence, a crucial biological event in plant development, involves the coordinated breakdown of cellular components to recycle nutrients, aiding adaptation to changing environments. It optimizes nutrient storage and reuse, particularly in leaves, the primary photosynthetic organs. Initiation of leaf senescence prompts various physiological changes, including chlorophyll (Chl) reduction and macromolecule degradation, enabling nutrient recycling that supports the growth of seeds and fruits ([Yang et al., 2014]; [Kim et al., 2018]; [Woo et al., 2019]; [Guo et al., 2021]). Efficient senescence ... || MIK2 was also linked to cell wall integrity ([Van der Does et al., 2017]; [Coleman et al., 2020]) and disease resistance ([Van der Does et al., 2017]). MIK2 was reported to function in elicitor perception in response to infection by Fusarium spp. fungi ([Van der Does et al., 2017]; [Coleman et al., 2020]). […] Loss-of-function in p ...

[6] = system: Arabidopsis root elongation; details: ref Hou et al., 2021b, Rhodes et al.; cited from earlier work
Source text: Senescence, a crucial biological event in plant development, involves the coordinated breakdown of cellular components to recycle nutrients, aiding adaptation to changing environments. It optimizes nutrient storage and reuse, particularly in leaves, the primary photosynthetic organs. Initiation of leaf senescence prompts various physiological changes, including chlorophyll (Chl) reduction and macromolecule degradation, enabling nutrient recycling that supports the growth of seeds and fruits ([Yang et al., 2014]; [Kim et al., 2018]; [Woo et al., 2019]; [Guo et al., 2021]). Efficient senescence ...

[7] = system: bak1 mutants; design: method as in Hou et al., 2021b; details: ref Hou et al., 2021b; cited from earlier work

B1: SERINE-RICH ENDOGENOUS PEPTIDE 10 (peptide)
peptide: ALPYHHELFLGRKRMNYYKPNSAIGTPSSTSDHAPGSNGRKLMSIYRPNGDIFTGPSGSGHGGGRTPAP
notes: processed from PROSCOOP10; synthesized by GenScript
[1]
  competition for MIK2 binding (pull-down signal): the SCOOP12-MIK2 complex resulted in a stable interaction with SCOOP10 application at the concentrations tested
[2]; SCOOP10 alone, Figures 5D and 5E, n = 8 leaves per replicate
  senescence phenotype, SCOOP10 alone (sequential assay control): significant senescence phenotypes
[2]; exogenous peptide, SCOOP10 1 μM for 5 days (Figure 2A, 2B; Supplemental Figure 3)
  leaf senescence phenotype, detached leaves: premature senescence phenotype in detached leaves
[3]; 1 to 10 days, WT, sixth rosette leaves
  Chl content, intact rosette leaves: reduced Chl content
[3]; 10 days, 4-week-old WT, three experiments, 8 leaves each
  leaf senescence, intact rosette leaves: significantly accelerated leaf senescence
[3]; WT
  Fv/Fm ratio, intact rosette leaves: reduced Chl content and Fv/Fm ratio
[4]; 1 μM peptide, no pretreatment, detached leaves, vs mock, qPCR
  PROSCOOP12 expression: induce the expression of PROSCOOP12 within 1 h
[4]; pretreated with SCOOP10 24 h, treated with SCOOP10 for 1, 5 and 10 h
  PROSCOOP12 expression, SCOOP10 pretreatment then SCOOP10: even stronger
[5]
  immune response (published): inducing plant immune responses
[6]
  root elongation (published): inhibiting root elongation
[7]
  sensitivity of bak1 mutants (root growth inhibition, published): sensitive to SCOOP10 application
